Experimental data: the supplement of paper PMC9170038

Each sequence was assayed on K4 kissing-loop RNA reporter (assay: apparent KD of K4 kissing-loop reporter; higher = weaker reporter binding). Conditions: Eterna round: R107; input ligand: FMN 200 uM.
Protocol: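 RNA-MaP round R107: designed RNA switches with theophylline, tryptophan, arginine or FMN aptamers are transcribed on-chip within common flanks. They are titrated with a labelled K4 kissing-loop RNA reporter in RNA-MaP buffer (100 mM Tris pH 7.5, 80 mM KCl, 4 mM MgCl2), without ligand or with the indicated ligand. Median apparent KD per design.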
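Note: bound reporter read as fluorescence of individual clusters on recovered sequencing chips by microscopy, with normalized cluster intensities fitted with a binding model.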

| Sequence | apparent KD of K4 kissing-loop reporter [nM] |
| --- | --- |
| CUGGUUCAGUGAUGUUGGAAGGUUUAGGUGAAGGAUAUAUUGCAUAAUAGAAGGUCACGGCCAUGCAAUUAUUAACGUAGCCUGU [theeternabot_exclusion_KL_FMN_A_3] | 279 |
| GAGCCAGAAGUUGCUGCGGGUUUCAGAGAUACCAGCCGUAUUGUAGGCCCUUGGCAGCUCGAGUGAUGUUCGAGCCGCUUCUAGC [Inma] | 128 |
| UGUAAGCGCGUAGAUACCAGCAAACAAAGAGUGAUGUUCAGAUUAAGGAAAAGAAAGUAAUGCCCUUGGCAGCUAAUCAUAAGCG [Theophylline B Exclusion; Euphoria Solution] | 419 |
| AUGUAUGAAUUAGGAUAUCGUUAGCCUUUCAUAUAUAUGAUAAAUGGAUAUGUCGUAGUGAUGUUACGAGAAGGAGUGUGGAGUA [KL-XFMN-B8] | 49.3 |
| AAGUCACAGGCAGGAUAUGCUUAGUAUUAAGGCCAUAUAUACGUAUAGAGUGAUGUUUUGUACCAGGCAGAAGGGCUACAUCCGU [FMN B Excl V4 (+U)] | 930 |
| GCAGUGAUGUUGCAACCGCGUACGAUGCCUCGAGGACCGGUACGGCCGCCACUCGUCCUGGUUCAGGAGCUACAGACAUAGCUCA [theeternabot_sameState_KL_Trp_A_2] | 563 |
| GUGCAAAGCACCGGCACGAGCAGCCUAAAGGAGGAUAUGACGAAAGUCAGAAGGUCUAGUGAUGUUAGGCCUUGCUUGAGUCGAA [Omei KL FMN A Exc B v3] | 288 |
| AAAUUUUCAAGUGAUACCAGACAUCUCUAUUACAUUAAUAUAGCUAAGUGAUGUUUAGCAGUCCCUUGGCAGCACAAUUUAAUUA [JR_SSTheophyB_Sub013] | 255 |
| GUGCGGCUAGUGAUGUUGGUUGUGUGGGAAGGAGCGCAGAUACAUGCAGGUAGGUCGCCCACACCUCUGAAAGGAGGCUAAUUCA [KL-SSArg-A15] | 418 |
| UGGAUAUAGUGAUGUUAUAUAGAGAUGGAUACCAGUUUAGAGAAGAGCCCUUGGCAGCCGAAAGAAGUAUCAUUAGAGAAGAAUG [ExTheophyl.Al] | 257 |
| UUUAUAAGGUCGGCCGCCACUGGAUUUAUGUUUGUUUCGUCUGGAUCAAAGUGAUGUUUUGAGUCCAGGACCGGGACAUUUGUUA [whbob_Ex_Tryp_B_w39] | 86.6 |
| CCGACUGCAGGAAGGAGCGGCGGUUGGAGUGAUGUUCCGGGUAGUGAUGUUACCAAACUCCGCCAGGUAGGUCGCCUGUUGCUCG [Same State Arginine B GF10] | 151 |
| GAUUUAGAGGCGGCCGCCACUAGUGAUGUUAGUGAUGUUUGAUACUGAAUAUAUCGGCGUGUAGAUAGGACCGGGCCAGAUGGAG [zwqqmullin] | 221 |
| GUUACGCAUGGAAGGAGCGCACUCCGGUUGAUCGACACAGUGAUGUUGUGGUUCAUUCGAAUGCAGGUAGGUCGCCAUGUGUAAC [Ex Arginine B K4 15] | 808 |
| AAGCAGUCACUCAAAGCCAUCGAAGAUGGUCGAGGACCGGUACGGCCGCCACUCGGAGUGAUGUUCCGAAGACUGCAAAAUAAAA | 407 |
| GGGUGGCAGGCGGCCGCCACUCUGAGGGUCCACAGUGAUGUUGUGGGCGCGUAAGCGUCUUCAUAGAGGACCGGGUUUGUUGUUC [Same State Tryptophan B GF 24] | 422 |
| UAGUGAAUAGAAGGAUAUUGAUAUGAAAGAUGCAGUGAUGUUGCCCGUAGCAGUCAGUAAUACGUGCAAGAAGGUCUGUGCGCGA [theeternabot_exclusion_KL_FMN_B_3] | 65.2 |
| CCAUUCAUCAGAAGGAGCGUCAAGUGAUGCUAUCCAGUGAUGUUGGAUAGCACGGAACAGUGACAGGUAGGUCGCUGAUGAGAGC [Arg B SS t8] | 121 |
| GCUAUGGUAGGAAGGAGCGCGGACGAUAUUUAUCGAGUGAUGUUCGAAUAAUUAAAUAAAACGCAGGUAGGUCGCCUACUAUAGC [Arginine B K4 27] | 108 |
| UGUACCGAGACAGGAUAUGUCGUCGAAAGACGAAAUGGAGUGAUGUUCCUUAAACUGCGAAAGCAGACAGAAGGGUCUUGGUACU [FmnBS 29 A10+U76] | 132 |
| UUUAUUAAGACGGCCGCCACUGAUUCAGAGUGAUGUUCUGAUAUUUUUUUAUAUAAUAAUAACAGCAGGACCGGGUCAAUUAUUA [JR_SSTryptoB_Sub013] | 225 |
| GAGGCCAAACGGAGUGAUGUUUCGUAUGAUACCAGCAGCGAAAGCUGCCCUUGGCAGCAUGCCACGGCCUCGGCAGGAAACUGCC | 401 |

| Sequence | apparent KD of K4 kissing-loop reporter [nM] |
| --- | --- |
| UACGCUGCCUGAGGAUAUAGAAACGAGUGAUGUUCGUGGAUAAGAGCCAGUGAUGUUGGGUUAUUUCUAGAAGGCAGGUAAAGUA [Exclusion FMN B GF6] | 106 |
| AACCGAGGUAAUCCACAAUGAUUAGAAGAUACCAGAUAUAUAAAUAUCCCUUGGCAGCUUUGAAUGAGUGAUGUUCAUUUGUCAU [KL-SSTheo-A11] | 126 |
| GUGACACGUGAUGAUACCAGUCCACGGAAGUUCCUUAGUGAUGUUAACCUUGCUUUUUCUGACCCUUGGCAGCAUUAGUUGAGAA [theeternabot_sameState_KL_Theo_B_42] | 332 |
| AGUAUUGAGUCGGCCGCCACUGGUUUAAUGAGUGUCAAUUCUGGAUCAAAGUGAUGUUUUGGAGCUAGGACCGGGACCAUUGUUA [#07 K4 Tryptophan B Exclusion] | 446 |
| UUGGCCCGGCCGGAAGGCCGGGCCUGCGAGCGAGGACCGGUACGGCCGCCACUCGGCGCAGUGAUGUUGCGUGGCCGCAAGGCCG [#2 Exclusion - Tryptophan A Attempt #1 (HarryS)] | 370 |
| AAGAGCUAGGCGGCCGCCACUAGUUGUGAACACAUACAAGCCAGUGAUGUUGGUAUGGUGGACGGUAGGACCGGGCCUAGCUGAA [Exclusion - Tryptophan B (Freestyle 16)] | 180 |
| CAGAUCACAGAGUGAUGUUCUGUGUCCGAAGGAGCGCGCUUCGGCGCAGGUAGGUCGCGGAUACAGUUGACGUACCAUCUAGACA [Arg A Ex t3c] | 446 |
| UCGACAGUGAACGAUACCAGCGUCACGUGGCUGGUGGUCACAUGAGUGAUGUUCAUGUAACGCCCUUGGCAGCGUGCACGUAUCA [KL-XTheo-B8] | 141 |
| ACACUAUCGUCAUAGACGGUAGUGAAAAGUGAGGAUAUGAGUGAUGUUAGAAGGCACUAAGACUGUAUCGAAUAGAUACAGUCAA [FmnA 4 #K4BetweenAptamer #OpenEnded] | 803 |
| GUCCACACUGCAGGAUAUGGAGGAAUAGCGAGGGAGUGUGGAAGCACACCUCUGGCAGUGAUGUUGCCAGAAGGGCGGUGCGGCG [Cemaorar] | 111 |
| AGGUCAGCAGGAAGGAGCGCCCUGACAGGUUGCUGCCGUGGGCAGUGAUGUUGCUCAGUCCGGCAGGUAGGUCGCCUGCUGACCU | 204 |
| CGCCGUAAGGCGAGCGCUCCCACUCCGGAAGGAGCGCCCGGAAGGGCAGGUAGGUCGCCGGAGUGAUGUUCCGGUGGAGGGCUCG [#2 Exclusion - Arginine A Attempt #12 (Inspired by Omei)] | 229 |
| AGUCCACUCUAAAGAGUGGACCUAAGGGAUACCAGUGAUGUUGGUCACCCUUGGCAGCCCACUGUCAUCGAUAAAGAUGGCAGGA | 128 |
| AAAAUAAAGCAGUCAAUCGGAGUGAUGUUCCGAGGACCGGUACGGCCGCCACUCGAGAGUCCAAAGGACUCAUGGCGAGACUGCA [#SwitchBubble 17 #K4Early] | 97 |
| ACGAUUUACAGAAGGAGCGUGUAUUUAACUACAAUUAUCUUAGCGAGUGAUGUUCGUUUUACACAGGUAGGUCGCUGUAUAUCGA [JR_ExcArginiB_Sub011] | 218 |
| UGUACCGAGUUAGGAUAUGUCGUCGAAAGACGAAAUGGAGUGAUGUUCCUUAAACUGCGAAAGCAGACAGAAGGAACUUGGUACU [FmnBS 29 U11+A75] | 190 |
| GAUGUCUAGAGAUCAUCUAGACACCUAGAUACCAGCAGAUAUAUCUGCCCUUGGCAGCUAGAACCAGUGAUGUUGGUAUAUGCUC [Theo A SS t3] | 259 |
| AGUGUUAGGUUAGAUACCAGCCGUCUGUGGAUAAUCCUCAGACCGCCAGUGAUGUUGGCAGGCCCUUGGCAGCUAACAGGACAGA [Mavebius] | 275 |
| UUUGGUUUCUCGGCCGCCACUCGUUGGUUAUGGGCCUCAGGGAUAUAGUGAUGUUAUGUAAAGAAGAGGACCGGGAGAAGGAAGG [ExTryptoB.Do] | 493 |
| CUAGGCCCUCGGCGGGACAUUGCGUGGGAAGGAGCGCAGAUAACUGCAGGUAGGUCGCCCAGUGAUGUUGGGCGAAUAUUGGUCA [Esinabige] | 102 |
| AAAUAGAUCAGUCACCCAGUGAUGUUGGAAGGAGCGUGCGAAAGCACAGGUAGGUCGCCAAAAUAAAAUUGGCUGAUCAAAAUAA | 304 |

Same assay, conditions: Eterna round: R107; input ligand: arginine 13.2 mM

| Sequence | apparent KD of K4 kissing-loop reporter [nM] |
| --- | --- |
| CUGGUUCAGUGAUGUUGGAAGGUUUAGGUGAAGGAUAUAUUGCAUAAUAGAAGGUCACGGCCAUGCAAUUAUUAACGUAGCCUGU [theeternabot_exclusion_KL_FMN_A_3] | 114 |
| GAGCCAGAAGUUGCUGCGGGUUUCAGAGAUACCAGCCGUAUUGUAGGCCCUUGGCAGCUCGAGUGAUGUUCGAGCCGCUUCUAGC [Inma] | 95.4 |
| UGUAAGCGCGUAGAUACCAGCAAACAAAGAGUGAUGUUCAGAUUAAGGAAAAGAAAGUAAUGCCCUUGGCAGCUAAUCAUAAGCG [Theophylline B Exclusion; Euphoria Solution] | 409 |
| AUGUAUGAAUUAGGAUAUCGUUAGCCUUUCAUAUAUAUGAUAAAUGGAUAUGUCGUAGUGAUGUUACGAGAAGGAGUGUGGAGUA [KL-XFMN-B8] | 52.9 |
| AAGUCACAGGCAGGAUAUGCUUAGUAUUAAGGCCAUAUAUACGUAUAGAGUGAUGUUUUGUACCAGGCAGAAGGGCUACAUCCGU [FMN B Excl V4 (+U)] | 440 |
| GCAGUGAUGUUGCAACCGCGUACGAUGCCUCGAGGACCGGUACGGCCGCCACUCGUCCUGGUUCAGGAGCUACAGACAUAGCUCA [theeternabot_sameState_KL_Trp_A_2] | 271 |
| GUGCAAAGCACCGGCACGAGCAGCCUAAAGGAGGAUAUGACGAAAGUCAGAAGGUCUAGUGAUGUUAGGCCUUGCUUGAGUCGAA [Omei KL FMN A Exc B v3] | 278 |
| AAAUUUUCAAGUGAUACCAGACAUCUCUAUUACAUUAAUAUAGCUAAGUGAUGUUUAGCAGUCCCUUGGCAGCACAAUUUAAUUA [JR_SSTheophyB_Sub013] | 202 |
| GUGCGGCUAGUGAUGUUGGUUGUGUGGGAAGGAGCGCAGAUACAUGCAGGUAGGUCGCCCACACCUCUGAAAGGAGGCUAAUUCA [KL-SSArg-A15] | 330 |
| UGGAUAUAGUGAUGUUAUAUAGAGAUGGAUACCAGUUUAGAGAAGAGCCCUUGGCAGCCGAAAGAAGUAUCAUUAGAGAAGAAUG [ExTheophyl.Al] | 164 |
